# Data as given in the supplement of paper PMC9170038.
# Experiments:
# [1] = test system: MS2 coat protein; assay: apparent KD of MS2 coat protein; higher = weaker reporter binding; conditions: Eterna round: R107
# Procedure: (§1)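 RNA-MaP round R107: designed RNA switches with theophylline, tryptophan, arginine or FMN aptamers are transcribed on-chip within common flanks. They are titrated with SNAP-549-labelled MS2 coat protein in RNA-MaP buffer (100 mM Tris pH 7.5, 80 mM KCl, 4 mM MgCl2), without ligand or with the indicated ligand. Median apparent KD per design.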
# [2] = test system: K4 kissing-loop RNA reporter; assay: apparent KD of K4 kissing-loop reporter; higher = weaker reporter binding; conditions: Eterna round: R107;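 note: bound reporter read as fluorescence of individual clusters on recovered sequencing chips by microscopy, with normalized cluster intensities fitted with a binding model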
# Procedure: as §1, with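 “a labelled K4 kissing-loop RNA reporter” for “SNAP-549-labelled MS2 coat protein”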
# [3] = input ligand: theophylline 20 uM
# [4] = input ligand: theophylline 2 mM
# [5] = input ligand: tryptophan 2.4 mM
Sequence,apparent KD of MS2 coat protein ([1]; input ligand: arginine 13.2 mM),"apparent KD of MS2 coat protein [1, 3]","apparent KD of MS2 coat protein [1, 4]",apparent KD of MS2 coat protein ([1]; input ligand: none),"apparent KD of MS2 coat protein [1, 5]",apparent KD of K4 kissing-loop reporter ([2]; input ligand: FMN 200 uM),apparent KD of K4 kissing-loop reporter ([2]; input ligand: arginine 13.2 mM),apparent KD of K4 kissing-loop reporter ([2]; input ligand: none),"apparent KD of K4 kissing-loop reporter [2, 3]","apparent KD of K4 kissing-loop reporter [2, 5]"
AACAUACAAUAAUAGGUGGAUAUAAGGCGGCGAGGACCGGUACGGCCGCCACUCGCGUACAUGAGGAUCACCCAUGUCUGAAACU [Same State - Tryptophan A (Freestyle 3)],16.8 nM,26.8 nM,27 nM,–,–,–,–,–,–,–
AAGGUGAUCCGUGAUACCAGCUCAACAUGAGGAUCACCCAUGUAAGCCUGGAAACAGGCGAGCCCUUGGCAGCACGGUUGCCAAG [(M)'-(Theo1)-(Ms2)-(Theo2)-(M'')-(T2)'_Design1],38.6 nM,138 nM,25.4 nM,165 nM,163 nM,–,–,–,–,–
UGUCUGAUGGAAACAUCGGACUUUACUGAUACCAGUAUCGAUAGAUACCCUUGGCAGCAGAAUCAGUAAUAACGAGUGAUGUUCG [Ex Theophylline A K4 3],–,–,–,–,–,347 nM,280 nM,386 nM,317 nM,310 nM
AAAAUAAGCCAGUGAUGUUGGUAUACAGAUACCAGCGACGAAAGUCGCCCUUGGCAGCUGUGGACGUACAAAAUAAGUACGUCCU,–,–,–,–,–,364 nM,278 nM,417 nM,780 nM,364 nM
UGGACCUGACUCGAUAAGAGUCAAAGGGAUACCAGCCACGAAAGUGGCCCUUGGCAGCUCUGCCAGUGAUGUUGGUCAAGGUCCU [#SwitchBubble 6 #StaticStem],–,–,–,–,–,925 nM,701 nM,1310 nM,590 nM,854 nM
AAUUCAAACUGAAGGAGCGAGCAAAUCGGAGUGAUGUUCCAAGCGAGUGAUGUUCGCAUAGCUCAGGUAGGUCGCAGUUUGGAUA [Same State Arginie B GF 13],–,–,–,–,–,120 nM,95.2 nM,107 nM,101 nM,101 nM
AAACGUCGGAAGUGAUGUUGAUGACGUAGUAAGGAUAUUGGACGCGCAAGAAGGUACUGGCAAACUAAGGACAUCCUGGAUAUUC [theeternabot_exclusion_KL_FMN_A_47],–,–,–,–,–,330 nM,251 nM,232 nM,243 nM,254 nM
UCUAACGUUGAGGCGGCAGCGGGCCCAUCUAAGGAUAUCGGUUUACCGAGAAGGUAGUUGGACGAGAGUGAUGUUCUAUUGAGAG [theeternabot_sameState_KL_FMN_A_18],–,–,–,–,–,207 nM,211 nM,254 nM,642 nM,159 nM
CACCUAGGUACGGCCGCCACUAGAAGUGAUGUUUCGUCUGGUUCCGCAUUACGUGUACUUUCUUAUAGGACCGGGUAGCAAAUAG [theeternabot_exclusion_KL_Trp_B_3],–,–,–,–,–,548 nM,288 nM,563 nM,258 nM,311 nM
CCAAACAGUUACGAUACCAGUCUAAUAUAUUUGAUCAAAACCCUCGCCGAGUGAUGUUCGGACCCUUGGCAGCGUCUGGGACAGG [zzbtmullin],–,–,–,–,–,479 nM,378 nM,500 nM,414 nM,371 nM
CAUUCAGUGAUGUUGGAAGGCGAGCGGGAUACCAGCGGAGACUCACGCCCUUGGCAGCCCAUAUAUCCCAGGUAGAUAAUAGUUC [Same State - Theophylline A (Freestyle 5)],–,–,–,–,–,276 nM,117 nM,217 nM,219 nM,201 nM
GGUAGCAUGGCGGCCGCCACUUAAUCACUCCAGGAUGAGGAAUAUAAGCAGUGAUGUUGCUAAGUAAGGACCGGGCCAUGCUACC,–,–,–,–,–,269 nM,271 nM,327 nM,354 nM,201 nM
GCCGUAGAUGGAAGGAGCGUGUCAAAGUGAUGUUUUGAUUAACUCCCUUAGGGAAAGAUGGCACAGGUAGGUCGCCAUCUACGGC,–,–,–,–,–,104 nM,74.2 nM,102 nM,131 nM,90.4 nM
CGCAGUGAUGUUGCGAGUAGCUACAGGGAAGGAGCGUGCUAGAGCACAGGUAGGUCGCCCAGUGGCAGUGAUGUUGCCAACGGGU [Exclusion ARginine A GF 18],–,–,–,–,–,132 nM,110 nM,110 nM,104 nM,109 nM
CAUAGGAAACUAUGUUUCUCUCUUACUGAAGGAGCGCGUGAAAACGCAGGUAGGUCGCAGAUUUUGAGAGUGAUGUUCUCAAUAA [Ex Arginine A K4 18],–,–,–,–,–,128 nM,167 nM,139 nM,155 nM,91.7 nM
GUUUGGCGGACGGCCGCCACUCGGACGAGUCACAGUGAUGUUGUGGUUUGCCAGUCGACUUCAUCGAGGACCGGGUUUGUCGGGC [Exclusion Tryptophan B GF 20],–,–,–,–,–,363 nM,276 nM,395 nM,314 nM,379 nM
AUACACGUUGCGGCCGCCACUUCGAUUAGUGAUGUUAGGUGUAAGCAGGCGCUGCAUUAAUGUGAAAGGACCGGGCAGAGUAAGC [theeternabot_exclusion_KL_Trp_B_39],–,–,–,–,–,203 nM,114 nM,160 nM,206 nM,148 nM
UGAUACCAGACUGAUACCAGCAGUGAUGUUGCUGAAAAUAAUAAAUGAGUCAAAGACUCGGGCCCUUGGCAGCAGUCUGGUAUCU [TheoBX 8 #SwitchBubble #StaticStem],–,–,–,–,–,111 nM,114 nM,116 nM,117 nM,95.9 nM
AUGGUGGAUCAGUGAUGUUGGUGGAGUAGGUAGGAUAUGAGUGAUGUUAGAAGGAUCGGAGUGAUGUUCCAGGUGGUUGUGUUGU [KL-SSFMN-A3],–,–,–,–,–,540 nM,302 nM,548 nM,516 nM,389 nM
UGACUGGACUGAAGGAGCGCUAAACUCCUAGUGAUGUUAGGAUAACGAGACAAAGUCUCGAAGCAGGUAGGUCGCAGUCUAGUCU,–,–,–,–,–,149 nM,110 nM,117 nM,133 nM,128 nM
